Measured values as given in patent publication US20260166130A1, “PEPTIDE COMPOSITION HAVING ANGIOGENIC ACTIVITY, AND PHARMACEUTICAL COMPOSITION USING SAME AND COSMETIC COMPOSITION USING SAME” (LABTOMEDI CRO CO.,LTD., priority 2022, published 2026).

System: HUVECs
Test: Blood vessel (tube) formation assay on Matrigel
Type: cell-based, human
Settings: 4 hours, vs. control
Method: HUVECs (20,000 cells/well) were seed on a layer of previously polymerized Matrigel and treated with or without the first peptide and the second peptide. The Matrigel culture was incubated at 37° C. After 4 hours, changes in cell morphology were captured using a phase-contrast microscope (×40). Each sample was assayed in duplicate, and independent experiments were repeated three times. *P<0.05, **P,0.01, ***P<0.001 (vs. control).
HUVECs (20,000 cells/well) were seeded on a layer of previously polymerized Matrigel, treated with the visfatin-derived peptides, and then incubated in a 5% CO2 incubator at 37° C. for 4 hours. Then, changes in the cell morphology were observed and photographed using a phase-contrast microscope at 40× magnification. Each sample was assayed in duplicate, and independent experiments were repeated three times. Angiogenesis was analyzed with ImageJ software using an angiogenesis analyzer (Bethesda, MD, USA).

B1: visfatin (protein, UniProt P43490 1-491, looked up)
Nicotinamide …: MNPAAEAEFNILLATDSYKVTHYKQYPPNTSKVYSYFECREKKTENSKLRKVKYEETVFYGLQYILNKYLKGKVVTKEKIQEAKDVYKEHFQDDVFNEKGWNYILEKYDGHLPIEIKAVPEGFVIPRGNVLFTVENTDPECYWLTNWIETILVQSWYPITVATNSREQKKILAKYLLETSGNLDGLEYKLHDFGYRGVSSQETAGIGASAHLVNFKGTDTVAGLALIKKYYGTKDPVPGYSVPAAEHSTITAWGKDHEKDAFEHIVTQFSSVPVSVVSDSYDIYNACEKIWGEDLRHLIVSRSTQAPLIIRPDSGNPLDTVLKVLEILGKKFPVTENSKGYKLLPPYLRVIQGDGVDINTLQEIVEGMKQKMWSIENIAFGSGGGLLQKLTRDLLNCSFKCSYVVTNGLGINVFKDPVADPNKRSKKGRLSLHRTPAGNFVTLEEGKGDLEEYGQDLLHTVFKNGKVTKSYSFDEIRKNAQLNIELEAAHH
notes: 55 kDa cytokine secreted from adipocytes, used as positive control
Second peptide except at the 2.0 μM concentration
  number of master junctions (tube formation): significantly increased
Positive controls
  number of meshes (tube formation): not significantly changed
